The source of these data is patent US20210238260A1 (published 2021).

Sequences and labels used below:
T1: Factor VIIIa (recombinant FVIII, Kogenate FS, activated with alpha-thrombin) (UniProt P00451 20-2351)
T1 construct: also called FVIIIa; cofactor
T1 sequence (looked up): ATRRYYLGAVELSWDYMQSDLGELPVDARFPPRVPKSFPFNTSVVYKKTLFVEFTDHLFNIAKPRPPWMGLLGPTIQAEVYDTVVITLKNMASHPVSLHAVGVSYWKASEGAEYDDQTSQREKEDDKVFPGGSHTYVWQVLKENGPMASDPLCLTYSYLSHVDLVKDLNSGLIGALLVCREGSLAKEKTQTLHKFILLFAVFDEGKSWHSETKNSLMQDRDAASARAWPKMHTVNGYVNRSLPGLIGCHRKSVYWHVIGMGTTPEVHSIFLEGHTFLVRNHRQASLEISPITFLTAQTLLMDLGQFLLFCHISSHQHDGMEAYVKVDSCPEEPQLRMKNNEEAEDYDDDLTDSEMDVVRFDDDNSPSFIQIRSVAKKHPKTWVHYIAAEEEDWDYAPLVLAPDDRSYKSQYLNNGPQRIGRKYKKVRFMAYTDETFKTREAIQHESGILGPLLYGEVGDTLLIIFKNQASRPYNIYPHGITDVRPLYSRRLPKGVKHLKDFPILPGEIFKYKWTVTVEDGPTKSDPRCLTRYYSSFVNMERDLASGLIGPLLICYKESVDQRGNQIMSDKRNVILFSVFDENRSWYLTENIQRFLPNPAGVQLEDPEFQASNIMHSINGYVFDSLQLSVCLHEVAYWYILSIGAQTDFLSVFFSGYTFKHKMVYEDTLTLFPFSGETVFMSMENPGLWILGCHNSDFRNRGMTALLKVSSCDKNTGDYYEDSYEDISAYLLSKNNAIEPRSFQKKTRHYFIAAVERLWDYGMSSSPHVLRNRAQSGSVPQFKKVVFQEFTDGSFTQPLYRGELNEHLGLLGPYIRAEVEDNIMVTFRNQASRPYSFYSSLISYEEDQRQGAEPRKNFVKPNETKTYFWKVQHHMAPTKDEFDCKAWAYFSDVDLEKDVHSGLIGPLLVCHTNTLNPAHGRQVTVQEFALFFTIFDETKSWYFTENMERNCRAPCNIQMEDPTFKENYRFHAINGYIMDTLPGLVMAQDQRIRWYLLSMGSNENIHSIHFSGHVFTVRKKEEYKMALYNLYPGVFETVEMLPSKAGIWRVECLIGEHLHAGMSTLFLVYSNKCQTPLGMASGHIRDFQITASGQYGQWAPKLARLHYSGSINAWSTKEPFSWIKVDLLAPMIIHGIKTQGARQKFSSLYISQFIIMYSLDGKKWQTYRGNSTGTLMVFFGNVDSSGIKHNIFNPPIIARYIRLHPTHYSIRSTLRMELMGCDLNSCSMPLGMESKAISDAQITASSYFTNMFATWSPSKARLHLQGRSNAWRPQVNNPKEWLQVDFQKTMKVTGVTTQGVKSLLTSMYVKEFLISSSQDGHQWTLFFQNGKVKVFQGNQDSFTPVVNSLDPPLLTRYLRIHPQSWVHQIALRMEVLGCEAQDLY

T2: Factor VIIIa (recombinant FVIII, Kogenate FS, activated with alpha-thrombin) (UniProt P00451 20-2351)
T2 construct: also called FVIIIa
T2 sequence (looked up): T1 sequence (looked up)

B1: FIXa-D104N/K106S/R318Y/R338E/E410N (enzyme)
chain 1: YNSGKLEEFVQGNLERECMEEKCSFEEAREVFENTERTTEFWKQYVDGDQCESNPCLNGGSCKDDINSYECWCPFGFEGKNCELDVTCNIKNGRCEQFCKNSANNSVVCSCTEGYRLAENQKSCEPAVPFPCGRVSVSQTSKLTR
chain 2: VVGGEDAKPGQFPWQVVLNGKVDAFCGGSIVNEKWIVTAAHCVETGVKITVVAGEHNIEETEHTEQKRNVIRIIPHHNYNAAINKYNHDIALLELDEPLVLNSYVTPICIADKEYTNIFLKFGSGYVSGWGRVFHKGYSALVLQYLRVPLVDRATCLESTKFTIYNNMFCAGFHEGGRDSCQGDSGGPHVTEVEGTSFLTGIISWGEECAMKGKYGIYTKVSRYVNWIKNKTKLT
B2: FIXa-R338E/R403E/E410N (enzyme)
chain 1: B1 chain 1 with N104D, S106K
chain 2: B1 chain 2 with Y138R, R223E
notes: also called R170E/R233E/E240N
B3: FIXa-D104N/K106S/Y155F/R318Y/R338E/R403E/E410N (enzyme)
chain 1: B1 chain 1
chain 2: B1 chain 2 with R223E
B4: FIXa-R318Y/R338E/R403E/E410N (enzyme)
chain 1: B1 chain 1 with N104D, S106K
chain 2: B1 chain 2 with R223E
notes: also called R150Y/R170E/R233E/E240N
B5: FIXa-R318Y/R338E/E410N (enzyme)
chain 1: B1 chain 1 with N104D, S106K
chain 2: B1 chain 2
notes: also called R150Y/R170E/E240N
B6: FIXa-R318Y/R338E/R403E (enzyme)
chain 1: B1 chain 1 with N104D, S106K
chain 2: B1 chain 2 with R223E, N230E
notes: also called R150Y/R170E/R233E
B7: FIXa-K247N/N249S/R338E/T343R/E410N (enzyme)
chain 1: B1 chain 1 with N104D, S106K
chain 2: B1 chain 2 with K67N, N69S, Y138R, T163R
notes: also called K82N/N84S/R170E/T175R/E240N (chymotrypsin numbering)
B8: FIXa-Y155F/K247N/N249S/R318Y/R338E/T343R/E410N (enzyme)
chain 1: B1 chain 1 with N104D, S106K
chain 2: B1 chain 2 with K67N, N69S, T163R
B9: FIXa-Y155F/K247N/N249S/R318Y/R338E/T343R/R403E/E410N (enzyme)
chain 1: B1 chain 1 with N104D, S106K
chain 2: B1 chain 2 with K67N, N69S, T163R, R223E
B10: FIXa-R318Y/T343R/R403E/E410N (enzyme)
chain 1: B1 chain 1 with N104D, S106K
chain 2: B1 chain 2 with E158R, T163R, R223E
notes: also called R150Y/T175R/R233E/E240N (chymotrypsin numbering)
B11: FIXa-R318Y/R338E/T343R/R403E/E410S (enzyme)
chain 1: B1 chain 1 with N104D, S106K
chain 2: B1 chain 2 with T163R, R223E, N230S
notes: also called R150Y/R170E/T175R/R233E/E240S (chymotrypsin numbering)
B12: FIXa-Y155F/R318Y/T343R/E410N (enzyme)
chain 1: B1 chain 1 with N104D, S106K
chain 2: B1 chain 2 with E158R, T163R
B13: FIXa-K228N/R318Y/R338E/T343R/R403E/E410N (enzyme)
chain 1: B1 chain 1 with N104D, S106K
chain 2: B1 chain 2 with K48N, T163R, R223E
notes: also called K63N/R150Y/R170E/T175R/R233E/E240N (chymotrypsin numbering)
B14: FIXa-Y155F/K247N/N249S/R338E/T343R (enzyme)
chain 1: B1 chain 1 with N104D, S106K
chain 2: B1 chain 2 with K67N, N69S, Y138R, T163R, N230E
B15: FIXa-Y155F/K247N/N249S/R338E/E410N (enzyme)
chain 1: B1 chain 1 with N104D, S106K
chain 2: B1 chain 2 with K67N, N69S, Y138R
B16: FIXa-K228N/K247N/N249S/R318Y/R338E/T343R/E410N (enzyme)
chain 1: B1 chain 1 with N104D, S106K
chain 2: B1 chain 2 with K48N, K67N, N69S, T163R
notes: also called K63N/K82N/N84S/R150Y/R170E/T175R/E240N (chymotrypsin numbering)
B17: FIXa-A103N/N105S/R318Y/R338E/R403E/E410N (enzyme)
chain 1: B1 chain 1 with A103N, N104D, N105S, S106K
chain 2: B1 chain 2 with R223E
B18: FIXa-D203N/F205T/R318Y/E410N (enzyme)
chain 1: B1 chain 1 with N104D, S106K
chain 2: B1 chain 2 with D23N, F25T, E158R
notes: also called D39N/F41T/R150Y/E240N
B19: FIXa-Y155F/K247N/N249S/N260S (enzyme)
chain 1: B1 chain 1 with N104D, S106K
chain 2: B1 chain 2 with K67N, N69S, N80S, Y138R, E158R, N230E
B20: FIXa-K247N/N249S/N260S (enzyme)
chain 1: B1 chain 1 with N104D, S106K
chain 2: B1 chain 2 with K67N, N69S, N80S, Y138R, E158R, N230E
notes: also called K82N/N84S/N95S (chymotrypsin numbering)
B21: FIXa-D104N/K106S/K247N/N249S/N260S (enzyme)
chain 1: B1 chain 1
chain 2: B1 chain 2 with K67N, N69S, N80S, Y138R, E158R, N230E
B22: FIXa-K247N/N249S/N260S/R318Y/R338E/R403E/E410N (enzyme)
chain 1: B1 chain 1 with N104D, S106K
chain 2: B1 chain 2 with K67N, N69S, N80S, R223E
notes: also called K82N/N84S/N95S/R150Y/R170E/R233E/E240N (chymotrypsin numbering)
B23: FIXa-D104N/K106S/Y155F/K247N/N249S/N260S (enzyme)
chain 1: B1 chain 1
chain 2: B1 chain 2 with K67N, N69S, N80S, Y138R, E158R, N230E
B24: FIXa D203N/F205T/R318Y/E410N (enzyme)
light: B1 chain 1 with N104D, S106K
heavy: B1 chain 2 with D23N, F25T, E158R
notes: as for B18
B25: FIXa A103N/N105S/R318Y/R338E/R403E/E410N (enzyme)
light: B1 chain 1 with A103N, N104D, N105S, S106K
heavy: B1 chain 2 with R223E

Residue numbers refer to the chain shown, from its start. Numbers in names are those of the source.

One assay addresses T1, Factor VIIIa (recombinant FVIII, …). In words: same assay; ratio of KD-app of Catalyst Biosciences WT FIXa to KD-app of this FIXa.
Description: (§1) The activity of alpha-thrombin was then quenched by the addition of a highly specific thrombin inhibitor, hirudin, prior to initiating the assay.
As for B1, the KD-WT/KD-mut is 7.7. On the same count and under the same terms, the result for B2 reads 1.7; that for B3, 1.6; that for B4, 2.

For the molecule B5, the KD-WT/KD-mut turned out to be 12.4.

On to B6, for which the KD-WT/KD-mut worked out at 0.3.

A further assay has as its target T2, Factor VIIIa (recombinant FVIII, …). In words: ratio of KD-app of wild-type FIXa (Catalyst Biosciences WT, SEQ ID NO:3) to that of the variant, same Xase assay.
Description: as §1
Consider B7, for which the KD-WT/KD-mut was determined as 6.8. B8: the KD-WT/KD-mut worked out at 6.9. Still for that read-out and setting: the result for B9 reads 6.3. Turning to B10, the KD-WT/KD-mut is 1.1. Regarding B11, the KD-WT/KD-mut is 4.1. Take B12: the KD-WT/KD-mut was determined as 2.5. The same measure, in the same setting: the result for B13 reads 5.4. On the same count and under the same terms, the result for B14 reads 6.2. Take B15: the KD-WT/KD-mut was 3.8. On to B16, for which the KD-WT/KD-mut is 12.2.

A further assay addresses T3, plasma purified human AT-III (antithrombin III) (human, UniProt P01008 33-464).
T3 construct: also called AT-III/UFH complex
Description: K0.5: AT-III conc. for 50% inhibition of FIXa amidolytic activity, AT-III/UFH titrated, 10 s incubation.
B17 gave a half-inhibitory concentration (IC50) of 9190 nM. On the same count and under the same terms, the value for B18 was 1280 nM.

A further assay deals with T1, Factor VIIIa (recombinant FVIII, …). Description: apparent functional KD (KD-app): FXa generation by FIXa with FVIIIa titrated, PC/PS vesicles, saturating FX, fluorogenic Spectrafluor FXa.
Description: (§2) Reactions were monitored in a SpectraMax fluorescence plate reader for 30 min at 37° C. A standard curve of free AMC served as the conversion factor for RFU to μM in the subsequent data analysis calculations using a dose range that covered 0 μM to 100 μM AMC.
With B1, the Kd came to 12.4 nM. On the same count and under the same terms, the value for B2 was 54.9 nM. Still for that read-out and setting: the result for B3 reads 61.6 nM. Same read-out and setting: the result for B4 reads 47 nM; that for B5, 7.7 nM. For B6, the Kd came to 340 nM.

For the next assay, the target named is T2, Factor VIIIa (recombinant FVIII, …). Description: functional cofactor affinity KD-app: fluorogenic FX activation (Xase) assay, FVIIIa titrated, PC/PS vesicles, saturating FX.
Description: as §2
With B7, the Kd was found to be 14 nM. The same measure, in the same setting: the value for B8 was 13.9 nM; that for B9 was 15.3 nM; that for B10 was 84.1 nM.

For B11, the Kd is 23.2 nM. For the molecule B12, the Kd is 38 nM.

For the molecule B13, the Kd came out at 17.5 nM. With B14, the Kd is 15.4 nM.

In the case of B15, the Kd amounted to 24.9 nM. Same read-out and setting: the value for B16 was 7.8 nM.

Another assay addresses T4, plasma purified human antithrombin III (AT-III), in complex with unfractionated heparin (UFH) (human, UniProt P01008 33-464).
T4 construct: also called AT-III/UFH
In words: K0.5: AT-III concentration (with excess UFH) for 50% inhibition of FIXa activity on Mesyl-D-CHG-Gly-Arg-AMC, 10 s incubation.
In turn, B19 returned an IC50 of 152 nM. Still for that read-out and setting: the value for B20 was 157 nM; that for B21 was 1260 nM; that for B22 was 5560 nM.

The molecule B23 displayed a half-maximal inhibitory concentration (IC50) of 692 nM. This IC50 lies about 8-fold lower than the previous one.

The next assay addresses T5, plasma purified human antithrombin III (AT-III), in complex with unfractionated heparin (human, UniProt P01008 33-464).
T5 construct: also called AT-III/UFH
Description: AT-III/UFH inhibition of FIXa; K0.5 = AT-III conc. for 50% inhibition of residual activity on Mesyl-D-CHG-Gly-Arg-AMC.
The molecule B24 had a half-maximal inhibitory concentration (IC50) of 1280 nM. B25 showed a half-inhibitory concentration (IC50) of 9190 nM.
